These results are taken from patent US20240409645A1.

T1: mouse IL-2Rβ (mouse) (UniProt P16297)
T1 sequence (looked up): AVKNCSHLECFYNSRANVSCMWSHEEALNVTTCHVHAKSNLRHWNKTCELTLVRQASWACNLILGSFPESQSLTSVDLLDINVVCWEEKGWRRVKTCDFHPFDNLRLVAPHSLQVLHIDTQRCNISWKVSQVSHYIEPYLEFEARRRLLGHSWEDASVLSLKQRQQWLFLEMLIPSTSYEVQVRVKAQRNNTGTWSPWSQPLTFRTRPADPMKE

B1: FJ1427 P035MP03D04 (VHH)
VHH: QVQLVESGGGLVQPGGSLRLSCAASGFTFSNYAMSWVRQAPGKELEWVSSITSAGRGTHYADTVKGRFTISRDNDENTLYLQMNSLEPEDTAVYYCAKYSSATYYPPTPAQGRDYRGQGTQVTVSS
B2: FJ1427_P035MP03F02 (VHH)
VHH: QVQLVESGGGLVQPGGSLRLSCAASGFTFSNYAMSWVRQAPGKGLEWVSSITGAGRGTYYADSVKGRFTISRDNDKNTLYLQMNSLKPEDTAVYYCAKYDSSTYYPPTPARGIADRGQGIQVTVSS
B3: FJ1427_P035MP03G03 (VHH)
VHH: QVQLVESGGGLVQPGGSLGLSCAASGFTFDNYAMSWVRQAPGKGLEWVSSITGAGRGTHYADSVKGRFTISRDNAKNTLYLQMNSLKPEDTAVYYCAKYSSSTYYPPTPARGTDYRGPGTQVTVSS
B4: FJ1427 P035MP03A03 (VHH)
VHH: EVQLVESGGGSVQTGGSLRLSCVVSGSHFISDVMGWYRQVPGKQRELVADMADGGSVKYGDSVKGRFTILRDSVKNTVTLQMSSLNPEDTGVYYCKAGLWITGRHFDYWGQGTQVTVTS
B5: FJ1427_P035MP03A04 (VHH)
VHH: EVQLVESGGGSVQTGGSLRLSCVVSGSHFISDVMGWYRQVPGKQRELVADMADGGSVKYGDSVKGRFTILRDSVKNTVTLQMSSLNPEDTGVYYCKAGLWITGRHFDYWGQGTQVTVTS
B6: FJ1427_P035MP03G02 (VHH)
VHH: EVQLVESGGGLVQPGGSLRLSCAISGGTLDSYGIGWVRQAPGKQREGVSCMSRSDDRTFYADSVKGRFTISKDNAKSTVYLQMTNLKPDDTAVYYCAAVDAYGCSLVQPTTYDFWGLGTQVTVSS
B7: FJ1427 P035MP03C04 (VHH)
VHH: EVQLVESGGGLVQAGASLELSCAASGGTFSSYAMGWFRQAPGKEREFVAATTRGGGRTMYAVSTEGRFSCSRDNAKNTVNLLIKNLKPEDTAVYYCAARTSYYDGTYYPASSDFDIWGQGTQVTVSS
B8: FJ1427 P035MP03C02 (VHH)
VHH: QVQLVESGGGLVQVGDSLRLSCAASGRTVGSANMGWFRQAPGKEREFVAVITWSTGSTVYADSVKGRFTISRDNAKNTVYLDMSSLKPEDTAVYYCAADVYPYSGNLNIMDYWGKGTLVTVSS
B9: FJ1427_P035MP03D03 (VHH)
VHH: QVQLVESGGGLVQVGDSLRLSCAASGRTVGSANMGWFRQAPGKEREFVAVITWSTGSTVYADSVKGRFTISRDNAKNTVYLDLSSLKPEDTAVYYCAADVYPYSGNLNIMDYWGKGTQVTVSS
B10: FJ1427 P035MP03B04 (VHH)
VHH: QVQLVESGGGLVQTGGSLRLSCAASGSQFINDVMGWYRQVPGKQRELVADMDDTGSTKYADSVKGRFTILRDSVKNTAYLQMSNLKPEDTGVYYCKAGLWIKGRHSDYWGQGTQVTVSS
B11: FJ1427_P035MP03E02 (VHH)
VHH: QVQLVESGGGLVQVGGSLSVSCAASGRSFDSITMAYFRQAPGNEREFIAGINFSGSRTAYGDSVKGRFTISRDNAKNTVFLQMNSLNPEDTAVYYCAASPRGFYGPGHALYDYWGQGTQVTVSS
B12: FJ1427 P035MP03D02 (VHH)
VHH: QVQLQESGGGLVQTGGSLRLSCAVSGSRFISDVMGWYRQVPGKQRELVADMADGGSAKYADSVKGRFSILRDSVKNTVYLQMSSLKPEDTGIYYCKAGLWLAGRHSDYWGQGTQVTVSS

The experiment addresses T1, mouse IL-2Rβ (mouse). In words: P.E. binding ELISA on coated protein.
The molecule B1 displayed a P.E. binding ELISA OD of 0.048 OD450 nm. With B2 the figure was 0.049 OD450 nm; with B3, 0.05 OD450 nm. Take B4: the P.E. binding ELISA OD came out at 0.05 OD450 nm.

Turning to B5, the P.E. binding ELISA OD turned out to be 0.051 OD450 nm. B6 gave a P.E. binding ELISA OD of 0.049 OD450 nm. For B7 the value was 0.048 OD450 nm; for B8, 0.048 OD450 nm.

B9 came in with a P.E. binding ELISA OD of 0.048 OD450 nm. B10: the P.E. binding ELISA OD was found to be 0.048 OD450 nm. B11: the P.E. binding ELISA OD was 0.05 OD450 nm. In the case of B12, the P.E. binding ELISA OD is 0.048 OD450 nm.
